Data published in publication PMC11032447.

B1: mouse secretagogin [mouse] / helix-b of the Habc domain of mouse syntaxin-4 [mouse] (parent)
chain 1: MDNARRKTPARLDAACFWQIWQRFDKEEKGYIRETELDAFFDHLLAKSGTEDTLMEENVQKVKEQLMTSHNVSKEGRILMKELASMFLSEDENFLLFFRLETPLDNSVEFMQIWRKYDADSSGFISAAELCNFLRDLFLHHKKNISEAELEEYTSTMMKIFDKNKDGRLDLNDLARILALQENFLLQFKMDASSTEERKRDFEKIFAHYDVSKTGALEGPEVDGFVKDMMELVQPSISGVDLDKFREILLRHCDVNKDGKIQKSELALCLGLKINP
chain 2: TPLPEESMKQGLQNLREEIKQLGREVRAQLKAIEPQKE

Variants of: B1
Experiment: ITC
Set-up: reference not given here
Details: with helix-b of the Habc domain of mouse syntaxin-4 [mouse]

Row | ratio to parent | Variant
1 | 0.31 | chain 1 V233A
2 | 12.8 | chain 1 M229E
3 | 3.98 | chain 1 M229A
4 | 1.99 | chain 1 R198A
5 | 39.8 | chain 1 L270A
